Test results from patent publication US20040009165A1.

Molecular target: macrophage mannose receptor on murine macrophage cell line J774E (murine) (UniProt Q61830)
Assay: cell-based or functional assay

Substance | Vmax for uptake in J774E cells
Cerezyme (recombinantly produced glucocerebrosidase) (from UniProt P04062 40-536) (enzyme) | 0.518
pGC54: GCB-GGGG linker-Saposin C fusion protein (enzyme) | 0.871
